Test results published in KR20230139570A (dated 2023).
Substitutions are numbered along the chain they refer to.

B1: Hu3A5V10 항체 (humanized 3A5 antibody, as tested in Example 4) (antibody, V domains shown)
VH: EVQLVQSGSELKKPGASVKVSCKASGYTFTSYWMHWMRQAPGQGLEWIGVIDPSDSYTSYNQGFTGRFVLSVDTSVSTAYLQISSLKAEDTAVYYCARGGKRAMDYWGQGTTVTVSS
VL: DVVMTQSPLSLPVTLGQPASISCRSSQSLVHSNGNTYLHWFQQRPGQSPRLLIYKVSNRFSGVPDRFSGSGSGTDFTLKISRVEAEDVGVYYCSQSTHVPFTFGGGTKLEIK
B2: AHF16310 전장 항체 (full length antibody, IgG4) (antibody, V domains shown)
VH: B1 VH with S54N, A103M
VL: DVVMTQSPLSLPVTLGQPASISCRSSQSLVHSNGNTYLHWFQQRPGQSPRLLIYKVSNRFTGVPDRFSGSGSGTDFTLKISRVEAEDVGVYYCSQSTHVPFTFGGGTKLEIKR
notes: also called AHF16310 항체
B3: AHF16312 전장 항체 (full length antibody, IgG4) (antibody, V domains shown)
VH: B1 VH with S54N, A103I
VL: B2 VL with H39N
notes: also called AHF16312 항체
B4: AHF16309 전장 항체 (full length antibody, IgG4) (antibody, V domains shown)
VH: B1 VH with S54N, A103M
VL: B2 VL with H39N, T61P
notes: also called AHF16309 항체
B5: Hu3A5V10 전장 항체 (full length antibody, IgG4) (antibody, V domains shown)
VH: B1 VH
VL: B2 VL with T61S
notes: also called U822EGG010-Hu3A5V10

Tests used:
[1] = target: CD47 on CD47-overexpressing breast cancer cell line MCF-7 (UniProt Q08722); test: flow cytometry on MCF-7 cells, secondary antibody alone (background control)
[2] = target: CD47 단백질 (Acrobiosystems, cat# CD7-HA2E9) (UniProt Q08722); test: ELISA, CD47 protein coated, negative control
[3] = target: CD47 단백질 (Acrobiosystems, cat# CD7-HA2E9) (UniProt Q08722); test: ELISA, CD47 protein coated, same method as Example 2-1
[4] = target: 인간 CD47 단백질 (Human CD47, SPR analyte) (human, UniProt Q08722 19-139, limits assumed); test: SPR, Biacore 8K, antibody captured, human CD47 as analyte
인간 CD47 단백질 (Human CD47, SPR analyte), sequence (Q08722 19-139 limits assumed): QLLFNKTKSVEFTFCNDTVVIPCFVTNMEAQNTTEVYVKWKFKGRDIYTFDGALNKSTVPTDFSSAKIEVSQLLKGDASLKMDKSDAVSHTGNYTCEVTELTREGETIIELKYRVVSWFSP

Molecule	Kd [4] [nM]	koff [4] [s⁻¹]	kon [4] [M⁻¹ s⁻¹]	also measured
PE-conjugated goat anti-mouse IgG (Biolegend Inc., cat# 405307) (antibody)				Mean (fluorescence) [1]: 80; Median (fluorescence) [1]: 73.9
음성대조군 (negative control of the Hu3A5V10 ELISA)				OD450 [2]: 0.0431 OD450
B1				OD450 [3]: 2.81 OD450
B2	0.208	0.000458	2.21e+06	
B3	0.166	0.000307	1.85e+06	
B4	0.312	0.000865	2.78e+06	
B5	0.465	0.000467	1e+06	
